{"source": "patent US20180334510A1", "about": "(BRANDEIS UNIVERSITY, published 2018)", "binders": {"B1": {"name": "monobody Mb51 (designed binder)", "chain": "SVSSVPTKLEVVAATPTSLLISWDAKPMSYEPVYYYRITYGETGGNSPVQEFTVPGYYSTATISGLKPGVDYTITVYADSMSSYYYSPISINYRT", "notes": "Monobody on a fibronectin type III (FN3) scaffold; also called AuroraA_51"}, "B2": {"name": "monobody Mb54 (designed binder)", "chain": "SVSSVPTKLEVVAATPTSLLISWDAQTYQMYDYVSYYRITYGETGGNSPVQEFTVPGYYSTATISGLKPGVDYTITVYAEGYYSSYSPISINYRT", "notes": "Monobody on a fibronectin type III (FN3) scaffold; also called AuroraA_54"}, "B3": {"name": "monobody Mb56 (designed binder)", "chain": "SVSSVPTKLEVVAATPTSLLISWDAMSDWYYWVDYYRITYGETGGNSPVQEFTVPGSYSTATISGLKPGVDYTITVYASDDVWGDYSPISINYRT", "notes": "Monobody on a fibronectin type III (FN3) scaffold; also called AuroraA_56"}, "B4": {"name": "monobody Mb60 (designed binder)", "chain": "SVSSVPTKLEVVAATPTSLLISWDAPAVTVVHYVITYGETGGNSPVQEFTVPGSKSTATISGLKPGVDYTITVYAIDFYWGSYSPISINYRT", "notes": "Monobody on a fibronectin type III (FN3) scaffold; also called AuroraA_60"}, "B5": {"name": "monobody Mb2 (designed binder)", "chain": "SVSSVPTKLEVVAATPTSLLISWDAFGHQYEPVYYYRITYGETGGNSPVQEFTVPGYYSTATISGLKPGVDYTITVYAWYVDGSYSSPISINYRT", "notes": "Monobody on a fibronectin type III (FN3) scaffold; also called AuroraA_2"}, "B6": {"name": "monobody Mb44 (designed binder)", "chain": "SVSSVPTKLEVVAATPTSLLISWDAPAVTVDFYVITYGETGGYSYPWQEFEVPGSKSTATISGLKPGVDYTITVYADYGQYFYSPISINYRT", "notes": "Monobody on a fibronectin type III (FN3) scaffold; also called AuroraA_44"}, "B7": {"name": "monobody Mb60 fused to supercharged GFP (designed binder)", "chain": "B4 chain", "notes": "also called sGFP-Mb60; not shown: supercharged green fluorescent protein"}}, "key": {"[1]": {"biological_target": "T1, Aurora A kinase (human, UniProt O14965 122-403, limits assumed)", "T1 construct": "also called AurA; deP AurA", "T1 sequence": "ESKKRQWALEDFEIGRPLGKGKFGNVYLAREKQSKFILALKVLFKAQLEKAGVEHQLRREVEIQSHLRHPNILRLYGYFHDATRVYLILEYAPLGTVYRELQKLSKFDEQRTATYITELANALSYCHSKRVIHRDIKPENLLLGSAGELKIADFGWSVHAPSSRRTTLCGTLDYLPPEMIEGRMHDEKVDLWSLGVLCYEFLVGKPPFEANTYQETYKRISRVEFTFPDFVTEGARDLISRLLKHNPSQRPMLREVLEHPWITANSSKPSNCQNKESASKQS", "assay": "yeast display titration of the clone with wild type Aurora A, mean fluorescence"}, "[2]": {"biological_target": "T2, Y199K", "T2 construct": "also called Y199K mutant Aurora A; Y199K Aurora A hotspot mutant", "T2 chain": "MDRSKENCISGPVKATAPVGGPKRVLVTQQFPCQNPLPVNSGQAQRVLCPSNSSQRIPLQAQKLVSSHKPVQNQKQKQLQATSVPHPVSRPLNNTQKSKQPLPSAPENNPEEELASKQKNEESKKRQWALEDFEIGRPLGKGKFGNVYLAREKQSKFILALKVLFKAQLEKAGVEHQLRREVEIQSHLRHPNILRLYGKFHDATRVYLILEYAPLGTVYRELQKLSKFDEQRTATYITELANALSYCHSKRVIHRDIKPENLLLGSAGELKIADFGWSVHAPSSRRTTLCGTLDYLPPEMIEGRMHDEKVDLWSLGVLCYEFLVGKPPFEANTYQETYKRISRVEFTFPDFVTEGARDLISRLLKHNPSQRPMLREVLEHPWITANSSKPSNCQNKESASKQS", "assay": "yeast display, single point with Y199K Aurora A, mean fluorescence"}, "[3]": {"biological_target": "T1, Aurora A kinase", "assay": "isothermal titration calorimetry with dephosphorylated Aurora A (deP AurA)"}, "[4]": {"biological_target": "T1, Aurora A kinase", "assay": "isothermal titration calorimetry with dephosphorylated Aurora A (deP AurA)", "remark": "listed apart in the source"}, "[5]": {"biological_target": "T3, Y199H", "T3 construct": "also called Y199H mutant Aurora A; Y199H Aurora A hotspot mutant", "T3 chain": "T2 chain with K199H", "assay": "yeast display, single point with Y199H Aurora A, mean fluorescence"}, "[6]": {"biological_target": "T1, Aurora A kinase", "assay": "isothermal titration calorimetry with dephosphorylated Aurora A (deP AurA)", "design": "dS: unit not given here"}, "[7]": {"biological_target": "T1, Aurora A kinase", "assay": "isothermal titration calorimetry with dephosphorylated Aurora A (deP AurA)", "design": "dS: unit not given here", "remark": "listed apart in the source"}, "[8]": {"biological_target": "T1, Aurora A kinase", "assay": "isothermal titration calorimetry; Mb60 alone, not the sGFP fusion (FIG. 6C)"}, "[9]": {"biological_target": "T1, Aurora A kinase", "assay": "isothermal titration calorimetry with dephosphorylated Aurora A (deP AurA)", "remark": "listed apart in the source"}, "[10]": {"biological_target": "T1, Aurora A kinase", "assay": "isothermal titration calorimetry with dephosphorylated Aurora A (deP AurA)", "remark": "listed apart in the source"}, "[11]": {"biological_target": "T1, Aurora A kinase", "assay": "method not stated; told in the isothermal titration calorimetry paragraph"}, "[12]": {"biological_target": "T1, Aurora A kinase", "assay": "isothermal titration calorimetry"}}, "note": "Numbering of substitutions follows the chain as printed. Read-outs that look alike come from different tables or passages of the source."}
{"binder": "B1", "values": [{"measurement": "Kd", "setting": "[1]", "result": 6, "unit": "nM"}, {"measurement": "binding result", "setting": "[2]", "result": "no binding (tested: 2000 (axis unit not printed))"}, {"measurement": "Kd", "setting": "[3]", "result": 27.4, "unit": "nM"}, {"measurement": "dH", "setting": "[3]", "result": -9.11, "unit": "kcal/mol"}, {"measurement": "dS", "setting": "[3]", "result": -16.9, "unit": "J/mol*K"}, {"measurement": "n", "setting": "[3]", "result": 0.93}]}
{"binder": "B2", "values": [{"measurement": "Kd", "setting": "[4]", "result": 175000, "unit": "nM"}, {"measurement": "dH", "setting": "[4]", "result": -24.2, "unit": "kcal/mol"}, {"measurement": "dS", "setting": "[4]", "result": -210, "unit": "J/mol*K"}, {"measurement": "n", "setting": "[4]", "result": 0.92}, {"measurement": "Kd", "setting": "[1]", "result": 81, "unit": "nM"}, {"measurement": "binding result", "setting": "[5]", "result": "no binding (tested: 2000 (axis unit not printed))"}]}
{"binder": "B3", "values": [{"measurement": "Kd", "setting": "[1]", "result": 60, "unit": "nM"}, {"measurement": "binding result", "setting": "[2]", "result": "no binding (tested: 2000 (axis unit not printed))"}, {"measurement": "Kd", "setting": "[6]", "result": 163, "unit": "nM"}, {"measurement": "dH", "setting": "[6]", "result": -10.1, "unit": "kcal/mol"}, {"measurement": "dS", "setting": "[6]", "result": -29.1}, {"measurement": "n", "setting": "[6]", "result": 0.94}]}
{"binder": "B4", "values": [{"measurement": "Kd", "setting": "[1]", "result": 25, "unit": "nM"}, {"measurement": "Kd", "setting": "[7]", "result": 1200, "unit": "nM"}, {"measurement": "dH", "setting": "[7]", "result": -31.9, "unit": "kcal/mol"}, {"measurement": "dS", "setting": "[7]", "result": -334}, {"measurement": "n", "setting": "[7]", "result": 0.92}, {"measurement": "binding result", "setting": "[2]", "result": "no binding (tested: 2000 (axis unit not printed))"}, {"measurement": "Kd", "setting": "[8]", "result": "~1000", "unit": "nM"}]}
{"binder": "B5", "values": [{"measurement": "Kd", "setting": "[1]", "result": 16.7, "unit": "nM"}, {"measurement": "Kd", "setting": "[9]", "result": 8.7, "unit": "nM"}, {"measurement": "dH", "setting": "[9]", "result": -16.1, "unit": "kcal/mol"}, {"measurement": "dS", "setting": "[9]", "result": -71.6, "unit": "J/mol*K"}, {"measurement": "n", "setting": "[9]", "result": 1.02}, {"measurement": "binding result", "setting": "[5]", "result": "no binding (tested: 2000 (axis unit not printed))"}]}
{"binder": "B6", "values": [{"measurement": "Kd", "setting": "[10]", "result": 2600, "unit": "nM"}, {"measurement": "dH", "setting": "[10]", "result": -13.7, "unit": "kcal/mol"}, {"measurement": "dS", "setting": "[10]", "result": -84.9, "unit": "J/mol*K"}, {"measurement": "n", "setting": "[10]", "result": 1.06}, {"measurement": "Kd", "setting": "[1]", "result": 42, "unit": "nM"}]}
{"binder": "MSQVKSSYSYDAPSDFINFSSLDDEGDTQNIDSWFEEKANLENKL (other, also called TPX2 polypeptide)", "note": "[TPX2]", "values": [{"measurement": "Kd", "setting": "[11]", "result": 50000, "unit": "nM"}]}
{"binder": "B7", "values": [{"measurement": "Kd", "setting": "[12]", "result": "~9900", "unit": "nM"}]}
